Experimental data published in patent US20170157212.

Tested on: purified recombinant CRIF1

HA-tagged full-length human CDK12
CDK12-mediated phosphorylation of the human GST-CTD substrate in vitro (immunoblot, CTD-Ser2P): recombinant CRIF1 potently inhibited CDK12-mediated phosphorylation of the human GST-CTD substrate in vitro, in a dose-dependent manner
S65 and T70 phosphorylation of recombinant 4E-BP1 in vitro (reactions with CDK12 and mTORC1/Raptor): rCRIF1 potently and selectively inhibited S65 and T70 phosphorylation of 4E-BP1 in vitro, in a dose-dependent manner, without affecting phosphorylation of the T37/46 sites by mTORC1
